Numbering of substitutions follows the chain as printed. Names may count otherwise.

This is an account of results in patent publication US20210388087A1.

This experiment deals with Human CD137 ECD (human). The experiment can be described thus: SPR, vs parent H183/L072. For orientation: Surface plasmon resonance follows binding to a sensor surface in real time, without labels.
Human CD137 ECD (human), sequence (chain, as listed by the source limits assumed): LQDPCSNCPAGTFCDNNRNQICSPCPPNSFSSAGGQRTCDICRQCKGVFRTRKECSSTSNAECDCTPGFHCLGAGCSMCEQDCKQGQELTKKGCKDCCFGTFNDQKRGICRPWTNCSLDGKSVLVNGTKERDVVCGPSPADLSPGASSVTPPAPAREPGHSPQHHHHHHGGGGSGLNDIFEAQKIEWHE

B1: dBBDu183H S100aQ / dBBDu072L (antibody, name in Kabat numbering, V domains shown)
VH: QVQLVESGGGLVQPGRSLRLSCAASGFTFSNAWMHWVRQAPGKGLEWVAQIKDKGNAYAAYYAPSVKGRFTISRDDSKNSIYLQMNSLKTEDTAVYYCHYVHYASAQTVLPAFGVDAWGQGTTVTVSS
VL: DIVMTQSPLSLPVTPGEPASISCQASQELVHMNRNTYLHWYQQKPGQAPRLLIYKVSNRFPGVPDRFSGSGSGTDFTLKISRVEAEDVGVYYCAQGTSVPFTFGQGTKLEIK
With B1, the fold change of affinity turned out to be 0 fold.

B2: dBBDu183H A100fD / dBBDu072L (antibody, name in Kabat numbering, V domains shown)
VH: B1 VH with Q107S, A112D
VL: B1 VL
Turning to B2, the fold change of affinity was 0 fold.

B3: dBBDu183H Y97E / dBBDu072L (antibody, name in Kabat numbering, V domains shown)
VH: B1 VH with Y103E, Q107S
VL: B1 VL
With B3, the fold change of affinity was 0 fold.

B4: dBBDu183H Y97S / dBBDu072L (antibody, name in Kabat numbering, V domains shown)
VH: B1 VH with Y103S, Q107S
VL: B1 VL
On to B4, for which the fold change of affinity is 0 fold.

B5: dBBDu183H V100iQ / dBBDu072L (antibody, name in Kabat numbering, V domains shown)
VH: B1 VH with Q107S, V115Q
VL: B1 VL
For B5, the fold change of affinity turned out to be 0 fold.

B6: dBBDu183H Y94E / dBBDu072L (antibody, name in Kabat numbering, V domains shown)
VH: B1 VH with Y100E, Q107S
VL: B1 VL
For B6, the fold change of affinity was determined as 0 fold.

B7: dBBDu183H L100dD / dBBDu072L (antibody, name in Kabat numbering, V domains shown)
VH: B1 VH with Q107S, L110D
VL: B1 VL
Consider B7, for which the fold change of affinity came out at 0 fold.

B8: dBBDu183H A100D / dBBDu072L (antibody, name in Kabat numbering, V domains shown)
VH: B1 VH with A106D, Q107S
VL: B1 VL
Regarding B8, the fold change of affinity worked out at 0 fold.

B9: dBBDu183H H96S / dBBDu072L (antibody, name in Kabat numbering, V domains shown)
VH: B1 VH with H102S, Q107S
VL: B1 VL
As for B9, the fold change of affinity is 0 fold.

B10: dBBDu183H A100fQ / dBBDu072L (antibody, name in Kabat numbering, V domains shown)
VH: B1 VH with Q107S, A112Q
VL: B1 VL
Turning to B10, the fold change of affinity was 0 fold.

B11: dBBDu183H G100hD / dBBDu072L (antibody, name in Kabat numbering, V domains shown)
VH: B1 VH with Q107S, G114D
VL: B1 VL
For B11, the fold change of affinity came out at 0 fold.

B12: dBBDu183H H96E / dBBDu072L (antibody, name in Kabat numbering, V domains shown)
VH: B1 VH with H102E, Q107S
VL: B1 VL
Take B12: the fold change of affinity is 0 fold.

B13: dBBDu183H S99D / dBBDu072L (antibody, name in Kabat numbering, V domains shown)
VH: B1 VH with S105D, Q107S
VL: B1 VL
As to B13, the fold change of affinity came to 0 fold.

B14: dBBDu183H T100bD / dBBDu072L (antibody, name in Kabat numbering, V domains shown)
VH: B1 VH with Q107S, T108D
VL: B1 VL
As to B14, the fold change of affinity came to 0 fold.

B15: dBBDu183H V95T / dBBDu072L (antibody, name in Kabat numbering, V domains shown)
VH: B1 VH with V101T, Q107S
VL: B1 VL
On to B15, for which the fold change of affinity worked out at 0 fold.

B16: dBBDu183H V100iD / dBBDu072L (antibody, name in Kabat numbering, V domains shown)
VH: B1 VH with Q107S, V115D
VL: B1 VL
Turning to B16, the fold change of affinity was 0 fold.

B17: dBBDu183H A98D / dBBDu072L (antibody, name in Kabat numbering, V domains shown)
VH: B1 VH with A104D, Q107S
VL: B1 VL
Take B17: the fold change of affinity is 0 fold.

B18: dBBDu183H H93D / dBBDu072L (antibody, name in Kabat numbering, V domains shown)
VH: B1 VH with H99D, Q107S
VL: B1 VL
On to B18, for which the fold change of affinity amounted to 0 fold.

B19: dBBDu183H G100hQ / dBBDu072L (antibody, name in Kabat numbering, V domains shown)
VH: B1 VH with Q107S, G114Q
VL: B1 VL
Consider B19, for which the fold change of affinity is 0 fold.

B20: dBBDu183H G100hT / dBBDu072L (antibody, name in Kabat numbering, V domains shown)
VH: B1 VH with Q107S, G114T
VL: B1 VL
Consider B20, for which the fold change of affinity came to 0 fold.

B21: dBBDu183H V100iS / dBBDu072L (antibody, name in Kabat numbering, V domains shown)
VH: B1 VH with Q107S, V115S
VL: B1 VL
As for B21, the fold change of affinity was 0 fold.

B22: dBBDu183H V100cD / dBBDu072L (antibody, name in Kabat numbering, V domains shown)
VH: B1 VH with Q107S, V109D
VL: B1 VL
For the molecule B22, the fold change of affinity was found to be 0 fold.

B23: dBBDu183H L100dT / dBBDu072L (antibody, name in Kabat numbering, V domains shown)
VH: B1 VH with Q107S, L110T
VL: B1 VL
For B23, the fold change of affinity is 0 fold.

B24: dBBDu183H A100S / dBBDu072L (antibody, name in Kabat numbering, V domains shown)
VH: B1 VH with A106S, Q107S
VL: B1 VL
For B24, the fold change of affinity amounted to 0 fold.

B25: dBBDu183H Y97D / dBBDu072L (antibody, name in Kabat numbering, V domains shown)
VH: B1 VH with Y103D, Q107S
VL: B1 VL
For B25, the fold change of affinity is 0 fold.

B26: dBBDu183H V95S / dBBDu072L (antibody, name in Kabat numbering, V domains shown)
VH: B1 VH with V101S, Q107S
VL: B1 VL
For B26, the fold change of affinity was found to be 0 fold.

B27: dBBDu183H F100gD / dBBDu072L (antibody, name in Kabat numbering, V domains shown)
VH: B1 VH with Q107S, F113D
VL: B1 VL
Regarding B27, the fold change of affinity came out at 0 fold.

B28: dBBDu183H A102D / dBBDu072L (antibody, name in Kabat numbering, V domains shown)
VH: B1 VH with Q107S, A117D
VL: B1 VL
On to B28, for which the fold change of affinity turned out to be 0 fold.

B29: dBBDu183H A102T / dBBDu072L (antibody, name in Kabat numbering, V domains shown)
VH: B1 VH with Q107S, A117T
VL: B1 VL
With B29, the fold change of affinity worked out at 0 fold.

B30: dBBDu183H H93S / dBBDu072L (antibody, name in Kabat numbering, V domains shown)
VH: B1 VH with H99S, Q107S
VL: B1 VL
Regarding B30, the fold change of affinity was determined as 0 fold.

B31: dBBDu183H A102Q / dBBDu072L (antibody, name in Kabat numbering, V domains shown)
VH: B1 VH with Q107S, A117Q
VL: B1 VL
On to B31, for which the fold change of affinity is 0 fold.

B32: dBBDu183H H93E / dBBDu072L (antibody, name in Kabat numbering, V domains shown)
VH: B1 VH with H99E, Q107S
VL: B1 VL
As to B32, the fold change of affinity is 0 fold.

B33: dBBDu183H A100T / dBBDu072L (antibody, name in Kabat numbering, V domains shown)
VH: B1 VH with A106T, Q107S
VL: B1 VL
Consider B33, for which the fold change of affinity turned out to be 0 fold.

B34: dBBDu183H S99E / dBBDu072L (antibody, name in Kabat numbering, V domains shown)
VH: B1 VH with S105E, Q107S
VL: B1 VL
B34: the fold change of affinity came out at 0 fold.

B35: dBBDu183H H93T / dBBDu072L (antibody, name in Kabat numbering, V domains shown)
VH: B1 VH with H99T, Q107S
VL: B1 VL
For B35, the fold change of affinity amounted to 0 fold.

B36: dBBDu183H S100aT / dBBDu072L (antibody, name in Kabat numbering, V domains shown)
VH: B1 VH with Q107T
VL: B1 VL
For the molecule B36, the fold change of affinity came out at 0 fold.

B37: dBBDu183H A98T / dBBDu072L (antibody, name in Kabat numbering, V domains shown)
VH: B1 VH with A104T, Q107S
VL: B1 VL
On to B37, for which the fold change of affinity amounted to 0 fold.

B38: dBBDu183H G100hS / dBBDu072L (antibody, name in Kabat numbering, V domains shown)
VH: B1 VH with Q107S, G114S
VL: B1 VL
For B38, the fold change of affinity is 0 fold.

B39: dBBDu183H V95E / dBBDu072L (antibody, name in Kabat numbering, V domains shown)
VH: B1 VH with V101E, Q107S
VL: B1 VL
Take B39: the fold change of affinity turned out to be 0 fold.

B40: dBBDu183H Y97T / dBBDu072L (antibody, name in Kabat numbering, V domains shown)
VH: B1 VH with Y103T, Q107S
VL: B1 VL
On to B40, for which the fold change of affinity is 0 fold.

B41: dBBDu183H S100aD / dBBDu072L (antibody, name in Kabat numbering, V domains shown)
VH: B1 VH with Q107D
VL: B1 VL
For the molecule B41, the fold change of affinity worked out at 0 fold.

B42: dBBDu183H V95D / dBBDu072L (antibody, name in Kabat numbering, V domains shown)
VH: B1 VH with V101D, Q107S
VL: B1 VL
As to B42, the fold change of affinity was found to be 0 fold.

B43: dBBDu183H A100fT / dBBDu072L (antibody, name in Kabat numbering, V domains shown)
VH: B1 VH with Q107S, A112T
VL: B1 VL
B43: the fold change of affinity stood at 0 fold.

B44: dBBDu183H H96D / dBBDu072L (antibody, name in Kabat numbering, V domains shown)
VH: B1 VH with H102D, Q107S
VL: B1 VL
For B44, the fold change of affinity was 0 fold.
